US20230056252A1 (Gilead, published 2023)

Target: T1, biotinylated CD3 epsilon:delta heterodimer protein (Amsbio AMS.CDD-H52WO) (Homo sapiens (Human), UniProt P07766 23-126; P04234 22-105)
T1 construct: also called CD3 heterodimer
Test: BLI (Octet), CD3 on SA sensor, bispecific analyte
Procedure: The CD3 binding kinetics of the purified huSP34 Fabs were determined using OctetRed384 (Pall ForteBio, CA) biolayer interferometry (BLI). […] Streptavidin (SA) coated biosensors tips (Pall ForteBio, CA) were used to capture biotinylated CD3 epsilon: delta heterodimer and typical immobilization levels captured on the SA sensors were 1 nm which approximately translates to 300 ng/ml of captured protein. For kinetic measurements biosensors were first pre-wetted with assay buffer for 10 minutes to remove protective sucrose coating followed by the recommended regeneration conditions for standardization of the biosensor surface for the experiment. In order to load the biosensors with antigen, 300 ng/ml of biotinylated CD3 epsilon: delta heterodimer protein (Amsbio AMS.CDD-H52WO) was immobilized on the SA sensor for 900 seconds. The CD3 loaded biosensors were then blocked with 20 ug/ml biocytin (sigma) for 200 seconds and then dipped into assay buffer containing wells for 200 seconds to remove any non-specific protein or unbound CD3 heterodimer.
CD3 loaded and biocytin blocked biosensors were then transferred into fresh assay buffer for 200 seconds to collect a baseline read. Kinetic measurements for anti-CD3 Fab and bispecific antibody binding were performed by dipping the CD3-coated biosensors into wells containing multiple concentrations of Fab or Ab (0-300 nM) for 100 seconds followed by a 300 second dissociation time by transferring the biosensors into assay buffer containing wells. The CD3 loaded sensors were then regenerated for the next kinetic measurement. Biosensors were generated by removing bound Fabs or Ab from immobilized CD3 on SA biosensors. Regeneration conditions used consisted of 3 cycles of 5 seconds of dipping the biosensors in Regeneration Buffer (10 mM Glycine HCl pH 1.5) followed by Assay Buffer (10 mM sodium phosphate pH 7.4, 140 mM Sodium Chloride, 0.005% Tween20 with 0.2% BSA).

Row | Binder | Kd [µM] | koff [s⁻¹] | kon [M⁻¹ s⁻¹]
1 | hPGT121.66 AAS + W/huSP34.19.8scFv AAS + SAV + R (bispecific antibody, human IgG1, lambda, L234A L235A) EVQLVESGGGLVQPGGSLRLSCAASGFTFSTYAMNWVRQAPGKGLEWVGRIRSKYNNYATYYAASVKGRFTISRDDSKNTLYLEMNSLRTEDTAVYYCVRHGNFGHSYVSWFAYWGQGTLVTVSSGGGGSGGGGSGGGGSGGGGSQAVVTQEPSLTVSPGGTVTLTCGSSTGAVTTGHYANWVQQKPGQAPRGLIGGTNKRAPGVPARFSGSLLGGKAALTISGAQPEDEAEYYCALWYSNRWVFGGGTKLTVLEPKSSDKTHTCPPCPAPEAAGGPSVFLFPPKPKDTLMISRTPEVTCVVVDVSHEDPEVKFNWYVDGVEVHNAKTKPREEQYNSTYRVVSVLTVLHQDWLNGKEYKCKVSNKALPASIEKTISKAKGQPREPQVYTLPPSREEMTKNQVSLSCAVKGFYPSDIAVEWESNGQPENNYKTTPPVLDSDGSFFLVSKLTVDKSRWQQGNVFSCSVMHEALHNRYTQKSLSLSPGK heavy: QMQLQESGPGLVKPSETLSLTCSVSGASISDSYWSWIRRSPGKGLEWIGYVHKSGDTNYNPSLKSRVHLSLDTSKNQVSLSLTGVTAADSGKYYCARTLHGRRIYGIVAFNEWFTYFYMDVWGTGTQVTVSSASTKGPSVFPLAPSSKSTSGGTAALGCLVKDYFPEPVTVSWNSGALTSGVHTFPAVLQSSGLYSLSSVVTVPSSSLGTQTYICNVNHKPSNTKVDKKVEPKSCDKTHTCPPCPAPEAAGGPSVFLFPPKPKDTLMISRTPEVTCVVVDVSHEDPEVKFNWYVDGVEVHNAKTKPREEQYNSTYRVVSVLTVLHQDWLNGKEYKCKVSNKALPASIEKTISKAKGQPREPQVYTLPPSREEMTKNQVSLWCLVKGFYPSDIAVEWESNGQPENNYKTTPPVLDSDGSFFLYSKLTVDKSRWQQGNVFSCSVMHEALHNHYTQKSLSLSPGK light: not shown | 0.0147 | 0.00104 | 72200
2 | hPGT121.66 AAS + W/huSP34.25.8scFv AAS + SAV + R (bispecific antibody, human IgG1, lambda, L234A L235A) EVQLVESGGGLVQPGGSLRLSCAASGFTFSTYAMNWVRQAPGKGLEWVGRIRSKYNNYAAYYAASVKSRFTISRDDSKNTLYLQMNSLRTEDTAVYYCVRHGNFGHSYVSWFAYWGQGTLVTVSSGGGGSGGGGSGGGGSGGGGSQAVVTQEPSLTVSPGGTVTLTCGSSTGAVTTGHYANWVQQKPGQAPRGLIGGTNKRAPGVPARFSGSLLGGKAALTISGAQPEDEAEYYCALWYSNRWVFGGGTKLTVLEPKSSDKTHTCPPCPAPEAAGGPSVFLFPPKPKDTLMISRTPEVTCVVVDVSHEDPEVKFNWYVDGVEVHNAKTKPREEQYNSTYRVVSVLTVLHQDWLNGKEYKCKVSNKALPASIEKTISKAKGQPREPQVYTLPPSREEMTKNQVSLSCAVKGFYPSDIAVEWESNGQPENNYKTTPPVLDSDGSFFLVSKLTVDKSRWQQGNVFSCSVMHEALHNRYTQKSLSLSPGK heavy: QMQLQESGPGLVKPSETLSLTCSVSGASISDSYWSWIRRSPGKGLEWIGYVHKSGDTNYNPSLKSRVHLSLDTSKNQVSLSLTGVTAADSGKYYCARTLHGRRIYGIVAFNEWFTYFYMDVWGTGTQVTVSSASTKGPSVFPLAPSSKSTSGGTAALGCLVKDYFPEPVTVSWNSGALTSGVHTFPAVLQSSGLYSLSSVVTVPSSSLGTQTYICNVNHKPSNTKVDKKVEPKSCDKTHTCPPCPAPEAAGGPSVFLFPPKPKDTLMISRTPEVTCVVVDVSHEDPEVKFNWYVDGVEVHNAKTKPREEQYNSTYRVVSVLTVLHQDWLNGKEYKCKVSNKALPASIEKTISKAKGQPREPQVYTLPPSREEMTKNQVSLWCLVKGFYPSDIAVEWESNGQPENNYKTTPPVLDSDGSFFLYSKLTVDKSRWQQGNVFSCSVMHEALHNHYTQKSLSLSPGK light: not shown | 0.0106 | 0.000928 | 87600
3 | hPGT121.66 AAS + W/huSP34.26.8scFv AAS + SAV + R (bispecific antibody, human IgG1, lambda, L234A L235A) EVQLVESGGGLVQPGGSLSLSCAASGFTFSTYAMNWVRQAPGKGLEWVGRIRSKYNNYAAYYAASVKGRFTISRDDSKNTLYLQMNSLRTEDTAVYYCVRHGNFGHSYVSWFAYWGQGTLVTVSSGGGGSGGGGSGGGGSGGGGSQAVVTQEPSLTVSPGGTVTLTCGSSTGAVTTGHYANWVQQKPGQAPRGLIGGTNKRAPGVPARFSGSLLGGKAALTISGAQPEDEAEYYCALWYSNRWVFGGGTKLTVLEPKSSDKTHTCPPCPAPEAAGGPSVFLFPPKPKDTLMISRTPEVTCVVVDVSHEDPEVKFNWYVDGVEVHNAKTKPREEQYNSTYRVVSVLTVLHQDWLNGKEYKCKVSNKALPASIEKTISKAKGQPREPQVYTLPPSREEMTKNQVSLSCAVKGFYPSDIAVEWESNGQPENNYKTTPPVLDSDGSFFLVSKLTVDKSRWQQGNVFSCSVMHEALHNRYTQKSLSLSPGK heavy: QMQLQESGPGLVKPSETLSLTCSVSGASISDSYWSWIRRSPGKGLEWIGYVHKSGDTNYNPSLKSRVHLSLDTSKNQVSLSLTGVTAADSGKYYCARTLHGRRIYGIVAFNEWFTYFYMDVWGTGTQVTVSSASTKGPSVFPLAPSSKSTSGGTAALGCLVKDYFPEPVTVSWNSGALTSGVHTFPAVLQSSGLYSLSSVVTVPSSSLGTQTYICNVNHKPSNTKVDKKVEPKSCDKTHTCPPCPAPEAAGGPSVFLFPPKPKDTLMISRTPEVTCVVVDVSHEDPEVKFNWYVDGVEVHNAKTKPREEQYNSTYRVVSVLTVLHQDWLNGKEYKCKVSNKALPASIEKTISKAKGQPREPQVYTLPPSREEMTKNQVSLWCLVKGFYPSDIAVEWESNGQPENNYKTTPPVLDSDGSFFLYSKLTVDKSRWQQGNVFSCSVMHEALHNHYTQKSLSLSPGK light: not shown | 0.0093 | 0.000504 | 55900
4 | hPGT121.66 AAS + W/huSP34.27.8 scFv AAS + SAV + R (bispecific antibody, human IgG1, lambda, L234A L235A, also called 270; bispecific 270) EVQLVESGGGLVQPGGSLSLSCAASGFTFSTYAMNWVRQAPGKGLEWVGRIRSKYNNYAEYYAASVKGRFTISRDDSKNTLYLQMNSLRTEDTAVYYCVRHGNFGHSYVSWFAYWGQGTLVTVSSGGGGSGGGGSGGGGSGGGGSQAVVTQEPSLTVSPGGTVTLTCGSSTGAVTTGHYANWVQQKPGQAPRGLIGGTNKRAPGVPARFSGSLLGGKAALTISGAQPEDEAEYYCALWYSNRWVFGGGTKLTVLEPKSSDKTHTCPPCPAPEAAGGPSVFLFPPKPKDTLMISRTPEVTCVVVDVSHEDPEVKFNWYVDGVEVHNAKTKPREEQYNSTYRVVSVLTVLHQDWLNGKEYKCKVSNKALPASIEKTISKAKGQPREPQVYTLPPSREEMTKNQVSLSCAVKGFYPSDIAVEWESNGQPENNYKTTPPVLDSDGSFFLVSKLTVDKSRWQQGNVFSCSVMHEALHNRYTQKSLSLSPGK heavy: QMQLQESGPGLVKPSETLSLTCSVSGASISDSYWSWIRRSPGKGLEWIGYVHKSGDTNYNPSLKSRVHLSLDTSKNQVSLSLTGVTAADSGKYYCARTLHGRRIYGIVAFNEWFTYFYMDVWGTGTQVTVSSASTKGPSVFPLAPSSKSTSGGTAALGCLVKDYFPEPVTVSWNSGALTSGVHTFPAVLQSSGLYSLSSVVTVPSSSLGTQTYICNVNHKPSNTKVDKKVEPKSCDKTHTCPPCPAPEAAGGPSVFLFPPKPKDTLMISRTPEVTCVVVDVSHEDPEVKFNWYVDGVEVHNAKTKPREEQYNSTYRVVSVLTVLHQDWLNGKEYKCKVSNKALPASIEKTISKAKGQPREPQVYTLPPSREEMTKNQVSLWCLVKGFYPSDIAVEWESNGQPENNYKTTPPVLDSDGSFFLYSKLTVDKSRWQQGNVFSCSVMHEALHNHYTQKSLSLSPGK light: not shown | 0.0132 | 0.001 | 76300
5 | hPGT121.66 AAS + W/huSP34.28.8 scFv AAS + SAV + R (bispecific antibody, human IgG1, lambda, L234A L235A, also called 271; bispecific 271) EVQLVESGGGLVQPGGSLSLSCAASGFTFSTYAMNWVRQAPGKGLEWVGRIRSKYNNYATYYAASVKSRFTISRDDSKNTLYLQMNSLRTEDTAVYYCVRHGNFGHSYVSWFAYWGQGTLVTVSSGGGGSGGGGSGGGGSGGGGSQAVVTQEPSLTVSPGGTVTLTCGSSTGAVTTGHYANWVQQKPGQAPRGLIGGTNKRAPGVPARFSGSLLGGKAALTISGAQPEDEAEYYCALWYSNRWVFGGGTKLTVLEPKSSDKTHTCPPCPAPEAAGGPSVFLFPPKPKDTLMISRTPEVTCVVVDVSHEDPEVKFNWYVDGVEVHNAKTKPREEQYNSTYRVVSVLTVLHQDWLNGKEYKCKVSNKALPASIEKTISKAKGQPREPQVYTLPPSREEMTKNQVSLSCAVKGFYPSDIAVEWESNGQPENNYKTTPPVLDSDGSFFLVSKLTVDKSRWQQGNVFSCSVMHEALHNRYTQKSLSLSPGK heavy: QMQLQESGPGLVKPSETLSLTCSVSGASISDSYWSWIRRSPGKGLEWIGYVHKSGDTNYNPSLKSRVHLSLDTSKNQVSLSLTGVTAADSGKYYCARTLHGRRIYGIVAFNEWFTYFYMDVWGTGTQVTVSSASTKGPSVFPLAPSSKSTSGGTAALGCLVKDYFPEPVTVSWNSGALTSGVHTFPAVLQSSGLYSLSSVVTVPSSSLGTQTYICNVNHKPSNTKVDKKVEPKSCDKTHTCPPCPAPEAAGGPSVFLFPPKPKDTLMISRTPEVTCVVVDVSHEDPEVKFNWYVDGVEVHNAKTKPREEQYNSTYRVVSVLTVLHQDWLNGKEYKCKVSNKALPASIEKTISKAKGQPREPQVYTLPPSREEMTKNQVSLWCLVKGFYPSDIAVEWESNGQPENNYKTTPPVLDSDGSFFLYSKLTVDKSRWQQGNVFSCSVMHEALHNHYTQKSLSLSPGK light: not shown | 0.0158 | 0.00134 | 84600
6 | hPGT121.66 AAS + W/huSP34.33.8 scFv AAS + SAV + R (bispecific antibody, human IgG1, lambda, L234A L235A) EVQLVESGGGLVQPGGSLRLSCAASGFTFSTYAMNWVRQAPGKGLEWVGRIRSKYNNYATYYAASVKSRFTISRDDSKNTLYLEMNSLRTEDTAVYYCVRHGNFGHSYVSWFAYWGQGTLVTVSSGGGGSGGGGSGGGGSGGGGSQAVVTQEPSLTVSPGGTVTLTCGSSTGAVTTGHYANWVQQKPGQAPRGLIGGTNKRAPGVPARFSGSLLGGKAALTISGAQPEDEAEYYCALWYSNRWVFGGGTKLTVLEPKSSDKTHTCPPCPAPEAAGGPSVFLFPPKPKDTLMISRTPEVTCVVVDVSHEDPEVKFNWYVDGVEVHNAKTKPREEQYNSTYRVVSVLTVLHQDWLNGKEYKCKVSNKALPASIEKTISKAKGQPREPQVYTLPPSREEMTKNQVSLSCAVKGFYPSDIAVEWESNGQPENNYKTTPPVLDSDGSFFLVSKLTVDKSRWQQGNVFSCSVMHEALHNRYTQKSLSLSPGK heavy: QMQLQESGPGLVKPSETLSLTCSVSGASISDSYWSWIRRSPGKGLEWIGYVHKSGDTNYNPSLKSRVHLSLDTSKNQVSLSLTGVTAADSGKYYCARTLHGRRIYGIVAFNEWFTYFYMDVWGTGTQVTVSSASTKGPSVFPLAPSSKSTSGGTAALGCLVKDYFPEPVTVSWNSGALTSGVHTFPAVLQSSGLYSLSSVVTVPSSSLGTQTYICNVNHKPSNTKVDKKVEPKSCDKTHTCPPCPAPEAAGGPSVFLFPPKPKDTLMISRTPEVTCVVVDVSHEDPEVKFNWYVDGVEVHNAKTKPREEQYNSTYRVVSVLTVLHQDWLNGKEYKCKVSNKALPASIEKTISKAKGQPREPQVYTLPPSREEMTKNQVSLWCLVKGFYPSDIAVEWESNGQPENNYKTTPPVLDSDGSFFLYSKLTVDKSRWQQGNVFSCSVMHEALHNHYTQKSLSLSPGK light: not shown | 0.0153 | 0.00118 | 77400
